Test results as given in patent US20180298070A1, “PEPTIDE COMPOUND” (Takeda Pharmaceutical Company Limited, published 2018).
Non-standard residues stand in square brackets, D forms with d. Groups on a side chain read outwards from the residue. Primed or numbered codes have the meaning given here. No end group written: not given here. *: point of attachment. C20 diacid = O=C(O)CCCCCCCCCCCCCCCCCCC(=O)*; Stearoyl = CCCCCCCCCCCCCCCCCC(=O)*; Tridecanoyl = CCCCCCCCCCCCC(=O)*; αMeF = C[C@](N)(Cc1ccccc1)C(=O)O; Lauroyl = CCCCCCCCCCCC(=O)*; dIva = CC[C@@](C)(N)C(=O)O; Iva = CC[C@](C)(N)C(=O)O; PEG2′ = not defined here; Dda = not defined here; Hexanoyl = CCCCCC(=O)*; Aib = CC(C)(N)C(=O)O

How the values were obtained:
[1] = target: T1, human GIPR (human), P48546
T1 chain: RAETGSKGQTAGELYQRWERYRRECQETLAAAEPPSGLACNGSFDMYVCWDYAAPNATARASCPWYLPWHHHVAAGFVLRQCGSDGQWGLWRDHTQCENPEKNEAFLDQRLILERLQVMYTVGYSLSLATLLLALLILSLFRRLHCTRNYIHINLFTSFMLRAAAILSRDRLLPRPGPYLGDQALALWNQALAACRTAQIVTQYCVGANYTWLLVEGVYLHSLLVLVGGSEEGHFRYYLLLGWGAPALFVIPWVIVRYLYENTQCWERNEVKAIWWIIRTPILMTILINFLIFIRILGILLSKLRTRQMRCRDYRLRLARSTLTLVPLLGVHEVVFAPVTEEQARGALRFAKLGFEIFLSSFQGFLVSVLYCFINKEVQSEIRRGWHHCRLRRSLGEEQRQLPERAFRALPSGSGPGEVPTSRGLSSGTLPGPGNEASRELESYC

[2] = target: T2, human GLP-1R (human), P43220
T2 chain: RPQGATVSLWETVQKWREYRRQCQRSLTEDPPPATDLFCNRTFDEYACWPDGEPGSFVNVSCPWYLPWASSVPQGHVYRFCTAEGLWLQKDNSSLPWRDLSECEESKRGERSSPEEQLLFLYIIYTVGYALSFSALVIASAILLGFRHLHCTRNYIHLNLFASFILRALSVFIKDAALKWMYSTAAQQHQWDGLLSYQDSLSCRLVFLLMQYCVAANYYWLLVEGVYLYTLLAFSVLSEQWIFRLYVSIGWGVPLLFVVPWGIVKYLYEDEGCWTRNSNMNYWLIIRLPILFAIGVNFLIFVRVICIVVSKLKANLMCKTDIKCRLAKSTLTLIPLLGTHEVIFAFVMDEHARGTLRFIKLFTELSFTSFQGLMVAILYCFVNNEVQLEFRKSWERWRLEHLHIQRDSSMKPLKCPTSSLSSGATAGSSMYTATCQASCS

[3] = target: T1, human GIPR (human), P48546; assay: [125I]GIP displacement, hGIPR VLP

Binder	Agonist activity (EC50, M) [1]	Agonist activity (EC50, M) [2]	IC50 [3]
Y[Aib]EGTFISDYSK([PEG2′-Hexanoyl])ALDRIHQQDFVNWLLAQRPSSGAPPPSR (ends and bridges not checked) [Compound 179]	3e-12 M	> 1e-06 M	2.1 nM
Y[Aib]EGTFISDYSK([PEG2′-Lauroyl])ALDRIHQQDFVNWLLAQRPSSGAPPPSR (ends and bridges not checked) [Compound 180]	1.9e-12 M	> 1e-06 M	1.2 nM
Y[Aib]EGTFISDYSK([PEG2′-Stearoyl])ALDRIHQQDFVNWLLAQRPSSGAPPPSR (ends and bridges not checked) [Compound 181]	9.2e-12 M	> 1e-06 M	2.6 nM
Y[Aib]EGTFISDYSK([PEG2′-Tridecanoyl])ALDRIAQQDFVNWLLAQRPSSGAPPPSR (ends and bridges not checked) [Compound 185]	7e-12 M	2.6e-08 M	19 nM
Y[Aib]EGTFISDYSK([PEG2′-Dda])ALDRIAQQDFVNWLLAQRPSSGAPPPSR (ends and bridges not checked) [Compound 188]	3e-12 M	2e-07 M	2.7 nM
Y[Aib]EGTFISDYSK([PEG(2)-Lauroyl])ALDRIAQQDFVNWLLAQRPSSGAPPPS (ends and bridges not checked) [Compound 191]	4.1e-12 M	5e-08 M	2.7 nM
Y[Aib]EGTFISDYSK([PEG(2)-Lauroyl])ALDRIAQQDFVN[αMeF]LLAQRPSSGAPPPSR (ends and bridges not checked) [Compound 194]	3.5e-12 M	2.5e-08 M	2.3 nM
Y[Aib]EGTFISDYSK([PEG(2)-Lauroyl])ALDRIAQQD[αMeF]VNWLLAQRPSSGAPPPSR (ends and bridges not checked) [Compound 195]	4.8e-12 M	1e-07 M	2.3 nM
Y[Aib]EGTFISDYSK([PEG(2)-Lauroyl])ALDRIAQQSFVNWLLAQRPSSGAPPPSR (ends and bridges not checked) [Compound 196]	6.3e-12 M	4.4e-08 M	2.4 nM
Y[Aib]EGTFISDYSK([PEG(2)-Lauroyl])ALDRIAQ[Aib]NFVNWLLAQRPSSGAPPPSR (ends and bridges not checked) [Compound 197]	5.6e-12 M	1.1e-08 M	2.6 nM
Y[Aib]EGTFISDYSK([PEG(2)-Lauroyl])[dIva]LDRIAQQDFVNWLLAQRPSSGAPPPSR (ends and bridges not checked) [Compound 199]	3.4e-11 M	> 1e-06 M	2.4 nM
Y[Aib]EGTFISDYSK([PEG(2)-Lauroyl])ALDRIAQQSFVNWLLAQRPSSGAPPPS (ends and bridges not checked) [Compound 203]	4.3e-12 M	> 1e-06 M	2.1 nM
Y[Aib]EGTFISDYSK([PEG(2)-Lauroyl])ALDRIAQ[Aib]NFVNWLLAQRPSSGAPPPS (ends and bridges not checked) [Compound 204]	8.1e-12 M	9.5e-09 M	2.6 nM
Y[Aib]EGTFISDYSK([PEG(2)-Lauroyl])ALDR[Aib]AQQDFVNWLLAQRPSSGAPPPS (ends and bridges not checked) [Compound 205]	3.4e-12 M	2.9e-08 M	1.6 nM
Y[Aib]EGTFISDYSK([PEG2′-Lauroyl])ALDR[Aib]HQ[Aib]NFVNW[Iva]LAQRPSSGAPPPS (not fully specified (C-terminus); ends and bridges not checked) [Compound 215]	2.8e-12 M	1.5e-07 M	2.8 nM
Y[Aib]EGTFISDYSK([PEG2′-Lauroyl])ALDRIAQQSFVNW[Iva]LAQRPSSGAPPPS (not fully specified (C-terminus); ends and bridges not checked) [Compound 220]	5.3e-12 M	9.9e-08 M	2.9 nM
Y[Aib]EGTFISDYSK([PEG2′-Lauroyl])ALDRIAQQS[αMeF]VNW[Iva]LAQRPSSGAPPPS (not fully specified (C-terminus); ends and bridges not checked) [Compound 221]	7.1e-12 M	> 1e-06 M	3 nM
Y[Aib]EGTFISDYSK([PEG(2)-Lauroyl])ALDRIHQQSFVNW[Iva]LAQRPSSGAPPPS (not fully specified (C-terminus); ends and bridges not checked) [Compound 222]	3.7e-12 M	> 1e-06 M	2.9 nM
Y[Aib]EGTFISDYSK([PEG(2)-Lauroyl])ALDRIHQQS[αMeF]VNW[Iva]LAQRPSSGAPPPS (not fully specified (C-terminus); ends and bridges not checked) [Compound 223]	5.1e-12 M	> 1e-06 M	3 nM
Y[Aib]EGTFISDYSIALDRK([PEG(2)-dodec])HQQDFVNWLLAQRPSSGAPPPS (not fully specified (C-terminus); ends and bridges not checked) [Compound 232]	3.2e-12 M	> 1e-06 M	2.1 nM
Y[Aib]EGTFISDYSIALDRK([PEG(2)-C20 diacid])HQQDFVNWLLAQRPSSGAPPPS (not fully specified (C-terminus); ends and bridges not checked) [Compound 234]	1.5e-10 M	> 1e-06 M	82 nM
